According to article PMC4674064, “Newly Characterized Region of CP190 Associates with Microtubules and Mediates Proper Spindle Morphology in Drosophila Stem Cells” (PLoS ONE, 2015):

Biological target: the molecule itself
Experiment: SEC-MALS; Superdex 200 10/300 GL, 25 mM Tris pH 7.4, 0.2 g/L NaN2, 0.5 mL/min

B1: Drosophila melanogaster CP190 BTB domain (residues 1-135) (domain or fragment, UniProt Q24478 1-135, looked up)
chain: MGEVKSVKVDNWGVFFLQKLQNFFNKTDYCDLTLQFRDNSQLKVHRLVLSACTDYFNVLEQTCEIVDDALIMPNEFQADVVVPIVNFMYTGTLEFELKMYGKLLRTAKEMNMTVLLKLLEAHRRTMENVNRQQRP
notes: CP190 (centrosome associated protein at 190 kDa), Drosophila melanogaster, BTB domain, residues 1-135; the final crystal model holds residues 2-121; Native and selenomethionine-substituted protein were crystallised; also called BTB-WT; source: E. coli BL21 DE3 (pLysS), purified (Ni-NTA, thrombin digestion, Q-sepharose ion exchange); not shown: His6, N-terminal, cleaved
- stoichiometry N: 2
